Earlier results as cited in paper PMC7830187.

Molecular target: synthetic peptide

Kd: 50 µM
Substance: intersectin-1 SH3 (from UniProt Q15811)
